From patent publication US20110038856A1, “METHODS OF TREATING NEOPLASTIC, AUTOIMMUNE AND INFLAMMATORY DISEASES” (Seattle Genetics, Inc., priority 2006, published 2011)

Experiments:
CD33 = CD33 (Homo sapiens, UniProt P20138); test: SGN-33 signaling in HL-60 cells, primary human monocytes and macrophages (CD33 immunoprecipitation, Western blot); assay type: cell-based; set-up: endogenous in cells; host or cells: HL-60 (ATCC); primary human CD14+ monocytes (Cambrex); macrophages derived from human PBMCs
Experimental: Deglycosylation was confirmed by CE-SDS. […] Cell lysates were prepared and CD33 immunoprecipitated using an anti-CD33 rabbit polyclonal antibody (Santa Cruz Biotechnology, Santa Cruz, Calif.) prior to SDS PAGE gel electrophoresis. Western blot analyses of these samples were performed using the 4G10 phosphotyrosine antibody (Upstate Biotechnology, Temucula, Calif.), anti-CD33 antibody (NovoCastra, Norwell, Mass.), and anti-SHP-1 antibody (Calbiochem, San Diego, Calif.). Control lysate for SHP-1 was prepared from a B cell lymphoma cell line.

[1] = test system: primary human macrophages; test: Macrophage migration in response to chemoattractants (CytoSelect Cell Migration Assay); assay type: cell-based
Experimental: The migration of macrophages in response to challenge with plating media containing 10% human serum, 20% conditioned tumor cell media, or 50 ng/ml TGF-β, VEGF, TNF-α, or IFN-γ was evaluated using the CytoSelect Cell Migration Assay (Cell Biolabs, San Diego, Calif.). […] The study was stopped 18 hours later and migration was evaluated after dissociation of the cells from the membrane followed by detection with Cyquant GR dye.
The migration of macrophages in response to challenge with plating media containing 10% human serum or 20% conditioned tumor cell media was evaluated using the CytoSelect Cell Migration Assay (Cell Biolabs, San Diego, Calif.). […] The studies were stopped 18 h later and migration was evaluated after dissociation of the cells from the membrane followed by detection with Cyquant GR dye.

[2] = HL-60 AML cells and primary human monocytes or macrophages, soluble SGN-33, 30 minutes, FIG. 15

Sequence of CD33 (P20138 18-364): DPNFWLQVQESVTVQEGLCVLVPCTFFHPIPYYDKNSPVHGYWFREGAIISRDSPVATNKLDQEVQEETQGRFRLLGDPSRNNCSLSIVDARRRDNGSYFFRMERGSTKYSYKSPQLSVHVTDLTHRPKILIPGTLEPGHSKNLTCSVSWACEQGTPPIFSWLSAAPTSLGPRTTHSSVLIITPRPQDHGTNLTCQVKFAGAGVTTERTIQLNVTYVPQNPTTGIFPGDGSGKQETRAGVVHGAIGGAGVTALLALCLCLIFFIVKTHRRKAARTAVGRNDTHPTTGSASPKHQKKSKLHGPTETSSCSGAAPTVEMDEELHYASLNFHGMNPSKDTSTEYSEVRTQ

SGN-33: anti-CD33 antibody, a humanized version of mouse monoclonal antibody M195
phosphorylation of CD33 (CD33; [2]): resulted in phosphorylation of CD33
recruitment of SHP-1 (CD33; [2]): recruitment of SHP-1
recruitment of SHP-1 to the CD33 complex (CD33; HL-60 and monocytes, 30 minutes, FIG. 16): resulted in recruitment of SHP-1
time to phosphorylation of CD33 and recruitment of SHP-1 (CD33; HL-60 cells, 3 μg/ml soluble SGN-33, FIG. 17): ≤ 5 min
strength of the phosphorylation response (signal on western blot) (CD33; primary monocytes compared to HL-60 or primary macrophages, opposite for SHP-1 signal, FIG. 15): appeared to be stronger in primary monocytes
macrophage migration ([1]; 10% human serum or 20% conditioned media from RPMI 8226 cells, p<0.05, FIG. 21): significantly reduced
blocking of macrophage migration ([1]; SGN-33 added to neuraminidase-treated macrophages, versus neuraminidase alone, FIG. 14C): greater blocking effect
movement of the macrophages toward chemoattractants ([1]; cells pre-treated, 10% serum or conditioned medium, FIG. 14B): significantly reduced
migration of macrophages ([1]; in response to conditioned tumor cell media, TGF-β, VEGF, TNF-α, and IFN-γ): significantly opposed the migration
